Source: a protein production outcome set (Wang et al. 2014)

Assay: label from the status in PepcDB records

Row | Sequence | protein production
1 | MNVFQMLRLPDLVSLLNLICGIGSIAVAAQSDSFGFALILLLLAAVADGADGYIARRFKGGELGEQLDSLADAVSFGVAPALLIFLEFGVEEPIVGIFAGLYAVCGVLRLARFNSSISVPKAGFEGLPITAGCIMLVTYLLLGESFVIVDVLLALTLALSILMVSTVNYPKIRNIKILAFVAAVFGITMLLYFIDVQYMRVFSFLPFILMLSYLFSPFLKIPVISIATSKDYGNRKGAKAEGRKEKQ | failed
2 | MKLHTSDLLIICAYLIAMIVIGLILKKRAAQNMDSYFLGGKSLPFYMLGLSNASGMFDITGTMLMVYWAFAYGFKSLWIPWLWPVFNQIFLMVYLSVWLRRSNVLTGAEWIKTRFGKGKGATLSHTIVVVFALLSVLGFLSYGFIGIGKFMEIFIPWEVISPYIPFTVSPEYVPHVYGIFFTAIATFYVMLGGMLSIVWTDVVQFLIMTVAGIVIVVIGMQMVAPDMIHSFVPAGWDSPFFGWTLDIDWSSRMSLLTERMANEPYSLIGIFVMMALLKGIFMSMAGPAPNYDMQKILSCKSPKEAAMMSGSVSVVLLIPRYLMIMGFALLAIYFFKEDGGLTQMEVTRTDFETILPHLITRYVPAGFAGLLLAGLLAAFMSTFASTVNAAPAYIVNDIYLKYINPKASVKTQIRSSYVISVAVVVVSTVIGFFLKDINEIFQWIVGALFGGYIAANVLKWHWWRFNGEGYFWGMTAGVVAAIVMKFTVPDAWVLYFFPVLFGVSLIGCIIGTYSAPATDEETLINFYVNVRPWGCWKPIQEKAIARYPHIQANKNFKRDAFNVAIGIIWQCTLTIIPMYLVVREQLGLWSSIALLLITTLILRKTWYKPLCKEEARYNEEMKQIR | failed
3 | LEKAGDSVEITNEEAVIQYVNPAFENITLYNAREAMNKTVASLLRSPVEDAQLFEEINQTLKSGNTWKGQIRSRKKDGSYWVAQTIIVPVMDDELGRITQHIAIKQDIT | failed
4 | AYPGFELDIDLALPGRGVTALFGHSGSGKSTCLRCIAGLEKAAEGEVTINGETWQDSRRNLFVAPHRRALGYVFQDANLFRHLTVRRNLAFGLKRIAAAERRVELEQACALLGIEHLLERMPERLSGGEQQRVGIARALLTSPRLLLMDEPLASLDLKRKGEILPYLERLHEELDIPVLYVSHSPDEVARLADHLVLLENGKVRASGPIGETLARVDLPLALDDDAGVVIEGTVSDHDPAYGLLTLVLPGSALQMRVAHAPLAPGKRLRFKVQARDVSLNLRDDAQSSILNRLPVRVLELVDTDTAAHVLVRLDAGGNPLLARITRYSRDQLQLR | failed
5 | MELDAFNKGAIPLINHPDCSALGYQVIQELGRNQEEGRITYLAHHHQSKQQVVIKEFSFAHTYTDWCDFTAYESEAKILQKLNHPRIPRYLDSFATQTGFYLVQEYKHALPLSSKRSFQPEEIKQIAVSVLEILVYLQQRIDPIIHRDIKPENILVDEQLNAYLVDFGLARVQDTKIALTSLLTGTPGFIPPEEQLGYSLSLASDLYSVGATLICLLANIRSVDIGKLIDSKGYFDFQKLDSQIDLRFRSWLMGMVEPKWQYRYTNAADALAALQPIQVTGNATAMEILATVIKLKYQTTVLGLAIIGVLAVAGATLILSQQGGAAQQLQEARK | failed
6 | MMVISEKVRKALNDQLNREIYSSYLYLSMATYFDAEGFKGFAHWMKKQAQEELTHAMKFYEYIYERGGRVELEAIEKPPSNWNGIKDAFEAALKHEEFVTQSIYNILELASEEKDHATVSFLKWFVDEQVEEEDQVREILDLLEKANGQMSVIFQLDRYLGQRE | not failed
7 | MADMSDAPLVVQSDRTILLEVDNPLYPEARDALARFAELVKSPEHIHTYRLTPLSLWNAAAGGLDAATIIQVLADYSKYPLPANVVADIREYVGRYGKVKLVARGTGLRLVTADPGIAAEISNNKRIQPYIKERQDACTLAIDPWQRGPVKQALIKIGYPVEDLAGYIPGAPLPFSLRERTLNGETFSLRPYQAEAARVFYAGGSSRGGSGVIVLPCGAGKTVVGIAAMALCQCYTLILVTSVTAARQWLAEIRDKTDLPPEMLGEYTGEKKEIKPVTVATYQIITHRRRRNEDYPNFQLFNQQDWGLIIYDEVHLLPAPIFRITAELQARRRLGLTATLIREDGHEDDVFSLIGPKKYDLPWKQLEAQGWIAKATCYEVRLNLPPEMRLDYASAGERDKYRIAATNPVKEAVVENIIKRHEGEQVLVIGQYLEQLERLARRLGVPMITGQTSNRERERLYQAFREGTLKCLVVSKVANFAIDLPEASVAVQVSGAFGSRQEEAQRLGRILRPKKGGLPASFYTLVTRETVEQEFAVHRQLFLTEQGYRYVIIGPDLEQEGDKVYPLKTPTGSEPAVGAVIKQENLDGKVIDLMAWRQKAGR | failed
8 | MRRSGAASRPASRGARTAYIGAMSRSTPPATTRIVCIRHGESTFNAHHEATGRDPGHIDARLSERGHAQVAAARAALRAIPFELVVTSPLTRALQTTAGIFSDHPARPDVLVEVLHRECQESSCDIGRAASVLAQEFPAFKVGHLPETWWYADGEAGPDGWHVEPRTLFDQRVSGFRDWLRARPERTIGVVGHCTFFYHLTGRWLANCEALDVDLTAEPRPRAYG | failed
9 | MSTAMYHLRVPQTEEELERYYQFRWEMLRKPLHQPKGSERDGWDALAHHQMVVDEEGNLVAVGRLYINADNEASIRFMAVHPSVQDKGLGTLMAMTLESVARQEGVKRVTCSAREDAVEFFAKLGFVNQGEITTPTTTPIRHFLMIKPVASLDDILHRGDWCGQLQQAWYEHIPLSEKMGVRIQQYTGQKFITTMPETGNQNPHHTVFAGSLFSLATLTGWGLIWLMLRERHLGGTIILADAHIRYSKPISGKPNAVADLGSLSGDLDRLARGKKARVQLQVELLGGETAGAIFEGIYIVLPLEHHHHHH | failed
10 | MLSMLALGSEKLMMGNNFPGSGVCFVYTDFGIPEYYRIIVLGLIALVGIKEMLLTSRKEDHFSIDSIDIGIFPLLICFVANFLFAGLEIIFTGLSP | failed
11 | MAEDQTVLAIDIGGSHVKIGLSTDGEERKVESGKTMTGPEMVAAVTAMAKDMTYDVIAMGYPGPVVHNKPLREPVNLGEGWVGYDYEGAFGRPVRIVNDALMQAIGSYNGGRMLFLGLGTGLGAAMIVENVAQPMEIAHLPYRKGKTYEHYVSEAYREKKGNAKWQKRVQDVVERLSAALEPDEVVIGGGNVERLENLPPKCRRGDNAMAFEGGFRLWKNADLIV | not failed
12 | MNRTKKRALTVRIVKTAISVALAAVIVVAMVLVNPQLSTNKLISSLMGYNHQSVDNGNASAGDADTNYYTADYTKENIRKAEDKLYDQIASEGTVLLKNDDNELPAQKGTTFSFFSANSVDGSSLTQGYLGTPETVTLKSAFTAAGFKVNETLWNYYESGAGKDYGLATGSVNYGDGEDFRINEAPLAALRKESGLLDSVRGTTPVYVLNRVVGEGRDMPRSMYNHADKQEDKEKSYIELDSTETEIIKYLNDNYKDVILLVKSSAAMELGWVADYPNIKAVVYSQNVTNALAKVFSGEVNPSGKTVDTFAADALASPAAQNFGSYQYYDGNGNATKYNYVDYAEGIYVGYKYYETRYEDKVLGQGNAGDYDYATEVVYPFGYGLSYTDFKWSDFSVATDGDDFVATVTVKNTGDVAGKDVVELYAQTPYTDYDKRNAVEKAAVNLVGYGKTAELEPGASETVKITFGKDQLKSYDYKGAKTYILDAGQYRFTAASDANQAINNILADKGKGMADGMTAEGDKAMVSSWTPENTDVDTTTFATDDATGKAIANLFDAASDPEVTYLTRSDWTGTFPKHYGESSGEINTWGNEINCKDSDGNNASCTWKKTASDELIKQLDGNDSGSTVDKSTITDTPTFGKSNGLKVSDMRGLDYDDEQWDKLLDELTEDDYNQLVYFSGYGVDYIKSVEKPFQTDADAATGWFYGGTGKAFPSIMMLTQTWNASLAEDLGVMMGNEALLGGANGWYAPAMNIHRTPFSGRNGEYYSEDGFMSGSMASLEVKGAATKGVYSYIKHFALNDQENHRGDRPGNFSVATWSNEQAIRETYLKPFDMCMHLGDMDMKTVVKKSDGTYENKTVTTPIAKGVMTSFNRLGATWTGGNYALIQQLLRDEWGFNGLIITDNANTSKFMSPYQMLEAGADIKLLNVSEDPTGEQLDFNDAATYHYARQAMHHLLYTVANSNCMNGALPGAGFTFYNQMKVMQIAFNAICGVILALLAFFSVWRWLPGTIKRVAARKETRAAKKAARKAAKA | failed
13 | MSSEEDKITRISIEPEKQTLLDHHTEKHFTAGEIVRDIIIGVSDGLTVPFALAAGLSGANASSSIVLTAGIAEVAAGAISMGLGGYLAAKSEEDHYAREMKREQEEIVAVPETEAAEVAEILAQYGIEPHEYSPVVNALRKNPQAWLDFMMRFELGLEKPDPKRALQSAFTIAIAYVLGGFIPLLPYMLIPHAMDAVVASVVITLFALFIFGYAKGHFTGSKPLRSAFETAFIGAIASAAAFCLAKVVQH | failed
14 | PKQRCRAPACDHFGNAKCNGYCNECFQFKQMYG | not failed
15 | MSKLIVPQWPQPKGVAACSSTRIGGVSLPPYDSLNLGAHCGDNPDHVEENRKRLFAAGNLPSKPVWLEQVHGKDVLKLTGEPYASKRADASYSNTPGTVCAVMTADCLPVLFCNRAGTEVAAAHAGWRGLCAGVLEETVSCFADNPENILAWLGPAIGPRAFEVGGEVREAFMAVDAKASAAFIQHGDKYLADIYQLARQRLANVGVEQIFGGDRCTYTENETFFSYRRDKTTGRMASFIWLI | not failed
16 | MRVPLDEIDKKIIKILQNDGKAPLREISKITGLAESTIHERIRKLRESGVIKKFTAIIDPEALGYSMLAFILVKVKAGKYSEVASNLAKYPEIVEVYETTGDYDMVVKIRTKNSEELNNFLDLIGSIPGVEGTHTMIVLKTHKETTELPIK | not failed
17 | TGEPGASDLESRNNRLQLALQLNQRTQQEQLEHLERVRGQQDLILRLARHRYSAGNSLLEAAQLITQSACEIYKVDCASIWHLEDQRLEPIIAWYRDAQEHRQPEAIDASRFPDYLDALHASRAIDAHNAGHDPRTRALAQSMRPENKAMLDASIRVDGQVIGVLCLEQSGQPRAWQSDEIAFAGELADQFAQVITNHKRRAAASALHLFQRAVEQSA | failed
18 | MELQHGQQRHIFEIRLFPEFDKAGMLKSILSVDRDVTATRQGERLLAEENEVLEMIAGNHPLPQTLEQICQMMESQQPGSMCSVLLLEEDGQSLRFAAGLSLPPAYRKLSERVAVGPSVGSCGTAAHWKRTIVVDDIQTSPLWAHALHKVQPFGLRACWSMPIFSSDRQLLGTLATYYREPRSPSQEELALAQRITRIIAIALQRDGHEKQLYRLATQDGLTELNNRRQFIELADREIERSRRHGSRMSVLMMDLDHFKDINDHYGHAVGDEVIRHFSQVCREVLRASDLCGRLGGEEFAAVLPDTGLDDARQVAERLRSLASSARLSAVSGSLGYTVSIGVAERHADETDIDEVLGRADKQLYQAKRDGRNRVSGAAPAHCG | failed
19 | MKKEYGYPTLKVICQASAGNETAIREILKFYDAYICKLCLRPFYHFESGKITMQVDEELKGQIHIEMMKAILKFEIRVK | failed
20 | MVNVDGKREEDEEVIEVEGMGANKSARMLERLHVVHQYVARWVYSHGIPFNAIANDDLRRMLEVAGQFGPGVTPPSQYQLREPLLKEEVVRMKGLMEEQEDEWRVNGCSVTTDSWSDRKRRSIMNLCINCKEGTMFLSSKDCFDDSHTGEYIFAYVNEYCIKNLGGDHVVQVVTNNATNNITAAKLLKEVRPTIFWTFCATHTINLMVEGISKLAMSDEIVKMAKAFTIFIYAHHQTLSMMRSFTKRRDIVRPGIIGFASAFRTLKSLVEKEENLKVKRKKKKKLSKATTMVVL | failed
